Assay results from patent US20220098328A1, “ANTIBODIES TO M(H)DM2/4 AND THEIR USE IN DIAGNOSING AND TREATING CANCER” (NomoCan Pharmaceuticals LLC, priority 2017, published 2022).
Positions count from the first letter of the chain named. Entries after “also recorded” stand apart in the source; their conditions may differ.

B1: NMC-204: mouse monoclonal antibody of the IgG3 isotype that binds to NMC-P2 (SEQ ID NO:2); VH SEQ ID NO:38, VL SEQ ID NO:39 (antibody, V domains shown)
VH: EVQLQESGSVLVRPGASVKLSCKASGDTLSGSWMHWAMQRPGQGLEWIGEIHLNRGTTNYNEKFKGKATVTVDTSSSTAYVDLSSLTSEDSAVYYCARSPGFAYWGQGTLVTVSA
VL: GIVMTQAAPSVPVTPGESVSISCRSSKSLLHSNGNSYLYWFLQRPGQSPQLLIYRMSNLASGVPDRFSGSGSGTAFTLRITRVEAEDVGVYYCMQHLEYPFTFGSGTKLEIK
modifications: mAb NMC-204 Heavy Chain Variable Region; mAb NMC-204 Light Chain Variable Region
B2: NMC-103: mouse monoclonal antibody of the IgG1 isotype that binds to NMC-P1 (SEQ ID NO:1); VH SEQ ID NO:36, VL SEQ ID NO:37 (antibody, V domains shown)
VH: EVQLQESGGGLVQPGGSLRLSCTTSGFTFTHYYMSWVRQPPGKALEWLGFIRNKAKGYTAEYSASVKGRFTISRDNSQSILYLQMNTLRPEDSATYYCARDIGDNWGQGTLVTVSS
VL: DIVMTQAAFSNPVTLGTSASISCRSSKNLLHSNGITYLYWYLQRPGQSPQLLISRVSNLASGVPNRFSGSESGTDFTLRISRVEAEDVGVYFCAQLLELPYTFGGGTKLEIK
modifications: mAb NMC-103 Heavy Chain Variable Region; mAb NMC-103 Light Chain Variable Region
B3: NMC-H103 (VH4/VK3): humanized NMC-103 variant, human IgG1, VH4 (SEQ ID NO:299) and VK3 (SEQ ID NO:297) (antibody, V domains shown)
VH: B2 VH with Q5V, G16P, P40A, A44G, Q78K, I80T, T87S, P90A, S93T, T95V
VL: B2 VL with A7T, A8P, F9L, N11S, T17Q, S18P, R44K, N65D, R79K, L109V
modifications: human IgG1 constant regions lacking entries; mAb NMC-H103.VH4Heavy Chain Variable Region; mAb NMC-H103.VK3Light Chain Variable Region

Tests used:
[1] = molecular target: NMC-P1 peptide (SEQ ID NO:1), amino acids 1-15 of HDM2 (Homo sapiens, UniProt Q00987); assay: Peptide-ELISA; format: binding; conditions: for binding to NMC-P1 peptide: peptide-ELISA, 5 μg/ml peptide on plate, OD 450 nm
Experimental: (§1) Peptide-ELISA Methodology: 5 μg/ml of NMC-P1, NMC-P2 or NMC-P3 peptide antigen was dried onto a 96-well ELISA plate overnight. Plates were then blocked with 5% BSA in 1× phosphate-buffered saline (PBS) (100 μl/well) for 2 hours at room temperature. Microplate wells were then washed 5 times with 300 μl of ice cold 1×PBS. Appropriate dilutions of monoclonal antibodies NMC-103, NMC-204 or NMC-303 in 1% bovine serum albumin (BSA) in PBS solution were then incubated with their corresponding peptides (NMC-P1, NMC-P2 or NMC-P3, respectively) at room temperature. After 2 hours, wells were washed 5 times with 300 μl ice-cold PBS/well and 100 μl secondary antibody (HRP-labeled Goat anti-Mouse F(ab′)2 H&L cross-adsorbed secondary antibody (HRP-GaM F(ab′)2), ThermoFisher, Cat. No. A24524) diluted 1:2500 to 1:5000 in PBS-1% BSA solution were added and the incubation continued at room temperature. After 1 hour, the wells were washed again 5 times with 200 μl of ice-cold PBS and 50 μL of the TMB Substrate Solution (1-Step™ Ultra TMB-ELISA, ThermoFisher, Cat. No. 34028) were added to each well and color was allowed to develop for 30 minutes at room temperature. The reaction was stopped by addition of 50 μL of stop solution (ThermoFisher, Cat. No. SS04) to each well and absorbance of each well was read immediately for optical density (OD) at 450 nm.
Competition assays: As for peptide antigen binding competition experiments, […] of mAb NMC-103 was pre-incubated with 10 μl/ml of NMC-P1, NMC-P2 or NMC-P3 for 1 hour at room temperature. MAb NMC-103 was then incubated with ELISA plates coated with NMC-P1 as described above.

[2] = molecular target: NMC-P3 peptide (SEQ ID NO:3), amino acids 475-491 of HDM2 (Homo sapiens, UniProt Q00987); assay: Peptide-ELISA; format: binding; conditions: 5 μg/ml peptide on plate, OD 450 nm
Experimental: as §1

[3] = test system: human pancreatic cancer MIAPaCa-2 cells; assay: Complement-dependent cytotoxicity with normal human serum (PI staining); format: cell-based; conditions: antibody 30 μg/ml, NHS 1:10, 2 hours
Experimental: Methodology used: Cells seeded in 24-well dishes were grown overnight at 37° C. in a humidified atmosphere supplied with 5% CO2-95% air mixture. The following day the cells were thoroughly washed with ice-cold PBS and incubated with HDM2-specific mAb NMC-103 diluted in culture medium containing 1% BSA to a final antibody concentration of 30 μg/ml. After 30 min, NHS was added to the cells at a final concentration of 1:10 in the culture medium with 1% BSA together with 1% propidium iodide (PI) solution. Cells were then incubated with NHS for 2 hours and images were taken using EVOS FL fluorescent microscope (Life Technologies).
Methodology used: Cells seeded in 24-well dishes were grown over night at 37° C. in a humidified atmosphere supplied with 5% CO2-95% air mixture. The following day the cells were thoroughly washed with ice-cold PBS and incubated with various HDM2-specific antibodies (i.e., OP145, N-20 and C-18 antibodies; see description of the antibodies in Table 10) or control antibodies (directed to the intra-cellular protein Cytochrome C) diluted in culture medium containing 1% BSA to a final antibody concentration of 5-10 ug/ml. After 30 min, NHS was added to the cells to make a final concentration of at 1:30 in the culture medium with 1% BSA together with 1% propidium iodide (PI) solution. […]

[4] = test system: human lung cancer A549 cells; assay: A549 tumors in NSG mice with or without Hu-PBMCs; format: in vivo; conditions: 1 i.p. dose 10 mg/kg, n=4
Experimental: Subcutaneous tumors were prepared by implanting either mouse colon MC-38 cells (5×10^5 cells/mouse), human lung cancer A549 cells (5×10^6 cells/mouse) or mouse lung cancer M109 cells (0.5×10^5 cells/mouse) in the right flanks of NOD scid gamma mice (NSG: NOD.Cg-Prkdc^scidIl2rg^tm1Wjl/SzJ) purchased from Jacksons Laboratory. From day 7 after tumor implantation, the tumor volumes were measured 2 times/week with a digital caliper. In the case of mouse colon MC-38 cells and human lung cancer A549 cells study in NSG mice, once tumors reached an average volume of 300-400 mm^3, mice were randomly divided into 3 groups (n=4) and 7×10^6 human PBMCs (Stem Cell Technologies Cat #70025) was injected into the tail vein of mice in groups 1 and 3. Seven days later, in the case of mouse colon MC-38 cells study, mAb NMC-C303 antibody (10 mg/kg) was injected intraperitoneally (i.p.) to mice in groups 2 and 3 and human isotype control antibody (BioXCell BP02) into mice in group 1 on days 33 and 35 post tumor inoculation. In the case of human lung cancer A549 cells study, seven days post PBMC injection, mice in group 2 and 3 received 1 intraperitoneal injection of mAb NMC-H103 (VH4/VK3) (10 mg/kg) while mice in group 1 received 1 injection of human isotype control antibody (BioXCell BP02) and tumors were measure 5 days later. […]

[5] = competition: 1 μl/ml mAb pre-incubated with 10 μl/ml peptide for 1 hour

Molecule | binding to NMC-P1 peptide [1] | binding to NMC-P3 peptide [2] | binding of mAb to plate-bound NMC-P1 after pre-incubation with NMC-P1 peptide [1, 5] | binding of mAb to plate-bound NMC-P1 after pre-incubation with NMC-P2 peptide [1, 5] | binding of mAb to plate-bound NMC-P1 after pre-incubation with NMC-P3 peptide [1, 5] | complement-mediated cytotoxicity (PI uptake) [3] | average tumor volume ([4]; NSG mice in presence of Hu-PBMCs) [mm^3] | average tumor volume ([4]; NSG mice in the absence of Hu-PBMCs) [mm^3]
B1 | did not bind | did not bind |  |  |  |  |  | 
B2 | bound; also recorded: strong binding |  | abolished the binding | did not affect the binding | did not affect the binding | triggered complement-mediated cytotoxicity |  | 
B3 |  |  |  |  |  |  | 784 | 1367
